Assays:
elongated peptide = target: T1, elongated peptide (human); experiment: competition (chemiluminescence ELISA)
T1 chain: WSLNPDTGLWE

truncated peptide = target: T2, truncated peptide (human); experiment: competition (chemiluminescence ELISA)
T2 chain: LNPDTGLWE

[1] = target: T3, standard/selection peptide SLNPDTGLWE (CILP-M) (human); experiment: competition (chemiluminescence ELISA, 20C, pH 7.4)
T3 chain: SLNPDTGLWE

non-sense peptide = target: T4, non-sense peptide; experiment: competition (chemiluminescence ELISA)
T4 chain: DSGPEYADVV

B1: NB326 #76 13B5-1C6-2C4 (antibody, V domains shown)
VH: QVQLQQSGPELVKPGASVRISCKASGYTFTNYYIHWVKQRPGQGLEWIGWISPGIVDTEYNEKFKNKATLTADKSSRTAYMQLSSLTSEDSAVYFCARRSAGSYGDFDYWGQGTTLTVSS
VL: DIVMTQSQKFMSTSVGDRVSVTCKASQNVGTDVVWYQQRPGQSPKALMYSASYRYSGVPDRFTGSGSGTDFTLTISNVQSEDLAEYFCQHYDNYPLTFGAGTKLELK
- binding result (elongated peptide): no binding
- binding result (truncated peptide): no binding
- IC50 [1]: 2 ng/mL
- binding result (non-sense peptide): no binding
